Test results published in publication doi:10.1101/2025.08.03.668247, “The structure of Egalitarian in complex with the K10 mRNA localization signal reveals a modular binding surface required for function”.

What was measured:
Experiment in all cases: fluorescence anisotropy; FA: 20 mM HEPES-NaOH pH 7.5, 100 mM NaCl, 10% glycerol, 20 C, 10 nM FAM-RNA; competition: 150 nM Egl512-819 + 10 nM FAM-K10 TLS, same buffer
Settings in all cases: protein: recombinant; tags: N-terminal GST; label: 5'-6-FAM; hairpin with two bulges
R788A = biological target: T1, R788A (Drosophila melanogaster, UniProt Q9W1K4 512-819, R788A)
T1 sequence: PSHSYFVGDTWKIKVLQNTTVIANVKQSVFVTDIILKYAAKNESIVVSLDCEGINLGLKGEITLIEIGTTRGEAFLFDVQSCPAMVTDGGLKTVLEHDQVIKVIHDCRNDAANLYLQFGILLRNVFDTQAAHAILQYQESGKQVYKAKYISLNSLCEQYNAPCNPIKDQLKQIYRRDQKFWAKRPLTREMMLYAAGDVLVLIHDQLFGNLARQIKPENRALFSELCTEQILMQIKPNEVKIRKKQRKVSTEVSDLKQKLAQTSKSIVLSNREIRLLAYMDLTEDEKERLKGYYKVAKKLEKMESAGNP

K678E = biological target: T2, K678E (Drosophila melanogaster, UniProt Q9W1K4 512-819, K678E)
T2 sequence: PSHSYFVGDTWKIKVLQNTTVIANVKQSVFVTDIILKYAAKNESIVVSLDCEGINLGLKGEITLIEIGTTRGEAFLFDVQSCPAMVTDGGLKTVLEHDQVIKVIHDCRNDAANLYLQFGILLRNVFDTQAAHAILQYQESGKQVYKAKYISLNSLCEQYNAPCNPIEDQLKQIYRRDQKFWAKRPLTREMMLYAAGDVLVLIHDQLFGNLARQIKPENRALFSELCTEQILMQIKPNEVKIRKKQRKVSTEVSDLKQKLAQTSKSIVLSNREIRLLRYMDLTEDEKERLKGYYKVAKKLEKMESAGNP

Egl1-819 = biological target: T3, Egl1-819 (Drosophila melanogaster, UniProt Q9W1K4 1-819)
T3 sequence: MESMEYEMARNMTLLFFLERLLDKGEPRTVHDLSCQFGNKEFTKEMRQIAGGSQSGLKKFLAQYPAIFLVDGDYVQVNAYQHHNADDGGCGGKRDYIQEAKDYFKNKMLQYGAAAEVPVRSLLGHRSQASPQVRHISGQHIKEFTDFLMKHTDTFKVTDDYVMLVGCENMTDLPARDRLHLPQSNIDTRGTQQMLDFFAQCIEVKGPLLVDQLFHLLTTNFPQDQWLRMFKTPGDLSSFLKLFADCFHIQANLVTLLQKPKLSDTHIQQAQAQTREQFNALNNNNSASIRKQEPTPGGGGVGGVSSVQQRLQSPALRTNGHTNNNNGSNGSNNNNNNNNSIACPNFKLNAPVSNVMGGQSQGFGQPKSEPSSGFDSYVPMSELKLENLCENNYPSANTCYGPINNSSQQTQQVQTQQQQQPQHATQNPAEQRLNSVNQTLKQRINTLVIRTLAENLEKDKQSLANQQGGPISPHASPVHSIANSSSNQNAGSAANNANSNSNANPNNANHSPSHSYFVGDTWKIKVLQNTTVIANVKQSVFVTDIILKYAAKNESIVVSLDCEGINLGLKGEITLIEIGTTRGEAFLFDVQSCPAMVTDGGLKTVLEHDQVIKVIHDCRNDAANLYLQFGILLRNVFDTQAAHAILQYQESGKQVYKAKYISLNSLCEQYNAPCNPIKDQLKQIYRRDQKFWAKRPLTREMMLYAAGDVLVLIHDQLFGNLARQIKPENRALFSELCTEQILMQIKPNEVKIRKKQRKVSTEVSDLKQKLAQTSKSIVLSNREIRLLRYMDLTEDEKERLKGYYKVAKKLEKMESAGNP

R785A = biological target: T4, R785A (Drosophila melanogaster, UniProt Q9W1K4 512-819, R785A)
T4 sequence: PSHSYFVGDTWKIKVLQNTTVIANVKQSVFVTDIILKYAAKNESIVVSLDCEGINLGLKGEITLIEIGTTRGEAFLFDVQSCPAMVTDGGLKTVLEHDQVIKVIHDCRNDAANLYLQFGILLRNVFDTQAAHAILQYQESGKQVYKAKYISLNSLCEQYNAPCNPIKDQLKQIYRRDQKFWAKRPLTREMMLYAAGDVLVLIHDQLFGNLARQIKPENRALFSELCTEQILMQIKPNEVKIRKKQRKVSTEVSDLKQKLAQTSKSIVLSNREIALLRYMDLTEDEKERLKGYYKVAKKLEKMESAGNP

R753A/K754A/K755A = biological target: T5, R753A/K754A/K755A (Drosophila melanogaster, UniProt Q9W1K4 512-819, R753A;K754A;K755A)
T5 sequence: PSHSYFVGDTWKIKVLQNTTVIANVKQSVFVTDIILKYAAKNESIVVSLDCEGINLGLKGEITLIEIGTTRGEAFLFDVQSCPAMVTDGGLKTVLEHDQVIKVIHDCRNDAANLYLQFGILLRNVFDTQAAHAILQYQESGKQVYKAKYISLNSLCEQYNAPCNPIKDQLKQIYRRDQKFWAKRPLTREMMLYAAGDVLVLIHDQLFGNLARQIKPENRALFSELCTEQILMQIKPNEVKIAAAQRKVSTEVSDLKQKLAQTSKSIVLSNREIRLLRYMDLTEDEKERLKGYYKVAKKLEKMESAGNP

B1: K10 TLS (FAM) (structured_RNA)
RNA: CUUGAUUGUAUUUUUAAAUUAAUUCUUAAAAACUACAAAUUAAG
Q: With B1 as the binder, how does the Kd (R788A) read?
A: 207 ± 43 nM

Q: What about the Kd (K678E) of the same binder?
A: 195 ± 9 nM

Q: What about the Kd (Egl1-819) of the same binder?
A: 127 ± 7 nM

Q: And the Kd (R785A)?
A: 194 ± 10 nM

Q: And the Kd (R753A/K754A/K755A)?
A: 222 ± 19 nM
